The record followed here is publication PMC8932525 (The Journal of Cell Biology, 2022).

Test [1] concerns the target nuclear pore complexes (NPCs) in endoKap-depleted digitonin-permeabilized HeLa cells (human (endogenous in HeLa)). Put plainly: permeabilized cell assay, confocal fluorescence microscopy.
Another test concerns the target T1, importin-5 (Imp5) (UniProt O00410 1-1097).
T1 sequence (looked up): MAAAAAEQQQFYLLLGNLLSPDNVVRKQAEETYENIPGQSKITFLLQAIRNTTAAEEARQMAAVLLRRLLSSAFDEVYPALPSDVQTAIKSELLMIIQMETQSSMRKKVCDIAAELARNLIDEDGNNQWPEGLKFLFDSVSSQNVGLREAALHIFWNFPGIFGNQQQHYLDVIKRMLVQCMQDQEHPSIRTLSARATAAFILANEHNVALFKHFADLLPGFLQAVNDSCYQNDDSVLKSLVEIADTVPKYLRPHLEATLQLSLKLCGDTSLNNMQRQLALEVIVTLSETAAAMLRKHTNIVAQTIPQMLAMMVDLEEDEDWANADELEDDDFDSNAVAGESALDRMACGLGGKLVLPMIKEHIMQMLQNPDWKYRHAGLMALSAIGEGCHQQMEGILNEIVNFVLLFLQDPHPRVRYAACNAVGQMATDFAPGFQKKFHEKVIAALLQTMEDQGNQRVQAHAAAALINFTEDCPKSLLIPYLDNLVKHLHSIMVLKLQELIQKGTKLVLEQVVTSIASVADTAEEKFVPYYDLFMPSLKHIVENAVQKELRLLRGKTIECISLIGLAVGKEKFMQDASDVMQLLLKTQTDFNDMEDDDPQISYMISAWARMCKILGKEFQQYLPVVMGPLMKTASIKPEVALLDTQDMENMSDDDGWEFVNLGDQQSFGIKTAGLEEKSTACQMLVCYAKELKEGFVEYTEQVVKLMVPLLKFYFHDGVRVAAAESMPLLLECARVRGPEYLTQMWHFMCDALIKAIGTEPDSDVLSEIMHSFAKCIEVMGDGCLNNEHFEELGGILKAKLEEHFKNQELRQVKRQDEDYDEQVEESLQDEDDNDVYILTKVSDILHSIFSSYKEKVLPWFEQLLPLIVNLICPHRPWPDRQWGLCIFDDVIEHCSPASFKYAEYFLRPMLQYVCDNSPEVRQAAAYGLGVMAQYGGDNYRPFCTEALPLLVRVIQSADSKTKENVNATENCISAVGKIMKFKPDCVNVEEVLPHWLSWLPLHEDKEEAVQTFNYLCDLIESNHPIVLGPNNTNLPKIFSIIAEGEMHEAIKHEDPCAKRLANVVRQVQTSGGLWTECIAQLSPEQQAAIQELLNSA
Nature of the test: SPR. In general terms: In SPR one partner is held on a chip, and binding of the other changes the refractive index at the surface.

Test [2] has as its target CRM1 (exportin 1/chromosomal maintenance 1) (UniProt O14980 1-1071). Put plainly: SPR.

Chain of CRM1 (exportin 1/chromosomal maintenance 1) (O14980 whole entry): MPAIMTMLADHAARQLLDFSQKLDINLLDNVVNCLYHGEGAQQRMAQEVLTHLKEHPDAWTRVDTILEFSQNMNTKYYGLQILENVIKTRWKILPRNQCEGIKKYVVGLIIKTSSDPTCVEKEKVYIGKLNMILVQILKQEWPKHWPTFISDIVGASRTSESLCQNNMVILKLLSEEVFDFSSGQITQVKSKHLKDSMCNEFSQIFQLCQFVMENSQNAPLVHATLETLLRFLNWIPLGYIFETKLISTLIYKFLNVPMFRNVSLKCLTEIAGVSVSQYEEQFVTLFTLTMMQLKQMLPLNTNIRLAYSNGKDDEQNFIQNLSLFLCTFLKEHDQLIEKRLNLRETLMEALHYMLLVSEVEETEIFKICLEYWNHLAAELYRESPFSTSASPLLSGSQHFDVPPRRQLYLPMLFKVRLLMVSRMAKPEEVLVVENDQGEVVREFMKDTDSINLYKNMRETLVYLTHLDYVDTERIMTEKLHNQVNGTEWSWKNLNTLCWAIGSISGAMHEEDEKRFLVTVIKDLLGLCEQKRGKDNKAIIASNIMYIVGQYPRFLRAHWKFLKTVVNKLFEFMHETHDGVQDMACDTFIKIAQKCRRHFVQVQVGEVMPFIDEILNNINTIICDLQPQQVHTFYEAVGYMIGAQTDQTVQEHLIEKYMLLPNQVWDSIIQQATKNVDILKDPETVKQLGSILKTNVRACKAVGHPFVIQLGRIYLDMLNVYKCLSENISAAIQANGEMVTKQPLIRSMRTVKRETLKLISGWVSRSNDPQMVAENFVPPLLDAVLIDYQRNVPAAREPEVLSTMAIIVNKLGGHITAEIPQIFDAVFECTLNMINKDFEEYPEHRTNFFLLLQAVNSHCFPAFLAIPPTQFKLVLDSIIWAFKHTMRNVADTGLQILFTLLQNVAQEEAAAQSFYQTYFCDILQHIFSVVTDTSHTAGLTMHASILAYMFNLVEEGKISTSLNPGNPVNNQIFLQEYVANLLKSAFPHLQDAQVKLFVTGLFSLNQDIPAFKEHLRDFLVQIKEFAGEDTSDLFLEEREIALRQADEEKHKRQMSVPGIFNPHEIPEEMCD

On to “CRM1–Alexa Fluor 647 (from UniProt O14980 1-1071) (natural protein)”, for which, in test [1], the K (D,NPC) in the presence of 10 µM exoKapβ1 is 2.8 µM; the Kd amounted to 500 nM; the reduction of relative occupancy from the standalone value, with 10 µM exoKapβ1 was found to be 51%; the relative occupancy with 10 µM exoImp5 stood at 59%.

In test [1], “Kapβ1–Alexa Fluor 488 (from UniProt Q14974 1-876) (natural protein)” gave an equilibrium dissociation constant (Kd) of 3100 nM and a relative occupancy with 10 µM exoImp5 of 72%.

B1: cNup153 (cysteine-tagged FG domain of human Nup153) (domain or fragment, UniProt P49790 874-1475, looked up)
chain: CESAKPGTKSGFKGFDTSSSSSNSAASSSFKFGVSSSSSGPSQTLTSTGNFKFGDQGGFKIGVSSDSGSINPMSEGFKFSKPIGDFKFGVSSESKPEEVKKDSKNDNFKFGLSSGLSNPVSLTPFQFGVSNLGQEEKKEELPKSSSAGFSFGTGVINSTPAPANTIVTSENKSSFNLGTIETKSASVAPFTCKTSEAKKEEMPATKGGFSFGNVEPASLPSASVFVLGRTEEKQQEPVTSTSLVFGKKADNEEPKCQPVFSFGNSEQTKDENSSKSTFSFSMTKPSEKESEQPAKATFAFGAQTSTTADQGAAKPVFSFLNNSSSSSSTPATSAGGGIFGSSTSSSNPPVATFVFGQSSNPVSSSAFGNTAESSTSQSLLFSQDSKLATTSSTGTAVTPFVFGPGASSNNTTTSGFGFGATTTSSSAGSSFVFGTGPSAPSASPAFGANQTPTFGQSQGASQPNPPGFGSISSSTALFPTGSQPAPPTFGTVSSSSQPPVFGQQPSQSAFGSGTTPNSSSAFQFGSSTTNFNFTNNSPSGVFTFGANSSTPAASAQPSGSGGFPFNQSPAAFTVGSNGKNVFSSSGTSFSGRKIKTAVRRRK
On to B1, for which the binding result in the test with importin-5 (Imp5) is on record as “binds”.

B2: cNup62 (cysteine-tagged FG domain of human Nup62) (domain or fragment, UniProt P37198 1-240, looked up)
chain: MSGFNFGGTGAPTGGFTFGTAKTATTTPATGFSFSTSGTGGFNFGAPFQPATSTPSTGLFSLATQTPATQTTGFTFGTATLASGGTGFSLGIGASKLNLSNTAATPAMANPSGFGLGSSNLTNAISSTVTSSQGTAPTGFVFGPSTTSVAPATTSGGFSFTGGSTAQPSGFNIGSAGNSAQPTAPATLPFTPATPAATTAGATQPAAPTPTATITSTGPSLFASIATAPTSSATTGLSLC
In test [2], B2 gave a Kd of 2860 ± 380 nM. In the test with importin-5 (Imp5), the binding result is “binds”.

B3: cNup214 (cysteine-tagged FG domain of human Nup214) (domain or fragment, UniProt P35658 1809-2090, looked up)
chain: SPGFGQGGSVFGGTSAATTTAATSGFSFCQASGFGSSNTGSVFGQAASTGGIVFGQQSSSSSGSVFGSGNTGRGGGFFSGLGGKPSQDAANKNPFSSASGGFGSTATSNTSNLFGNSGAKTFGGFASSSFGEQKPTGTFSSGGGSVASQGFGFSSPNKTGGFGAAPVFGSPPTFGGSPGFGGVPAFGSAPAFTSPLGSTGGKVFGEGTAAASAGGFGFGSSSNTTSFGTLASQNAPTFGSLSQQTSGFGTQSSGFSGFGSGTGGFSFGSNNSSVQGFGGWRS
In turn, B3 returned a Kd in test [2] of 110 ± 20 nM. Also, in the test with importin-5 (Imp5), the binding result is “binds”.

B4: cNup98 (cysteine-tagged FG domain of human Nup98) (domain or fragment, UniProt P52948 1-498, looked up)
chain: MFNKSFGTPFGGGTGGFGTTSTFGQNTGFGTTSGGAFGTSAFGSSNNTGGLFGNSQTKPGGLFGTSSFSQPATSTSTGFGFGTSTGTANTLFGTASTGTSLFSSQNNAFAQNKPTGFGNFGTSTSSGGLFGTTNTTSNPFGSTSGSLFGPSSFTAAPTGTTIKFNPPTGTDTMVKAGVSTNISTKHQCITAMKEYESKSLEELRLEDYQANRKGPQNQVGAGTTTGLFGSSPATSSATGLFSSSTTNSGFAYGQNKTAFGTSTTGFGTNPGGLFGQQNQQTTSLFSKPFGQATTTQNTGFSFGNTSTIGQPSTNTMGLFGVTQASQPGGLFGTATNTSTGTAFGTGTGLFGQTNTGFGAVGSTLFGNNKLTTFGSSTTSAPSFGTTSGGLFGNKPTLTLGTNTNTSNFGFGTNTSGNSIFGSKPAPGTLGTGLGAGFGTALGAGQASLFGNNQPKIGGPLGTGAFGAPGFNTTTATLGFGAPQAPVALTDPNASAAQQ
As to B4, in the test with importin-5 (Imp5), the binding result is given as “binds”.

In general, Kd refers to a measure of binding affinity in units of concentration. A low value points to higher affinity.
